Results published in patent US20110311550A1 (Scripps Research, published 2011).

B1: MAb AR1A (antibody, V domains shown)
VH: LEQSGAEVKKPGSSVKVSCRASGSPYSSYTITWVRQAPGQGLEWMGGIILMTGKANYAQKFQGRVTITADRATATAYMEMSSLTSDDTAIYYCARDPYVYAGDDVRSLSRWGQGTPVIVSS
VL: not shown
notes: also called IgG1 of Fab B2
B2: MAb AR2A (antibody, V domains shown)
VH: LEQSGAEMKKPGASLKVSCKTSGYTFDDYGVTWVRQAPGQGLEWMGWISAYSGNTFYARKFQGRVTMTTDPSTRTAYMELRSLRSDDTAVYFCARDRGLAINGVVFPYFGLDVWGQGTTVTVSS
VL: ELTQSPVSLPVTPGEPASISCRSSQSLLHSNGNHYLDWYLQKPGQSPQLLMYLGSNRASGVPDRFSGSGSGTDFTLKISRVEAEDVGVYYCMQGLQTPWTFGQGTKVEIKR
notes: also called IgG1 of Fab G
B3: MAb AR1B (antibody, V domains shown)
VH: LESGGGLVQPGGSLRLSCEASGYYFSSFAMSWVRQTPGKGLEWVSSIAGGTLGRTSYRDSVKGRFTISRDNSKNTVFLHMNNLRPEDTAVYYCAKDPLLFAGGPNWFDHWGQGTLVTVSS
VL: not shown
notes: also called IgG1 of Fab D1

Columns and labels:
[1] = target: T1, vaccinia-expressed E1E2 complex, isolate HCV-1 (genotype 1a) (hepatitis C virus, isolate HCV-1, UniProt P26664 192-383; P26664 384-746); assay: competition ELISA on HCV-1 E1E2; competitor m19 (CBH-4B)
[2] = target: T2, E1E2 complex of HCV isolate H77 (genotype 1a), wild type (HCV isolate H77, UniProt P27958 192-383; P27958 384-746); assay: competition ELISA on H77 E1E2; competitor m43 (Fab P1a)
[3] = target: T2, E1E2 complex of HCV isolate H77 …; assay: competition ELISA on H77 E1E2; competitor m44 (Fab P2)
[4] = target: T1, vaccinia-expressed E1E2 complex, …; assay: competition ELISA on HCV-1 E1E2; competitor m31 (11/20)
[5] = target: T1, vaccinia-expressed E1E2 complex, …; assay: competition ELISA on HCV-1 E1E2; competitor m3 (AR2A)
[6] = target: E1E2 (Env) of HCV isolate J6 (genotype 2a) on HCVpp (hepatitis C virus, isolate J6, UniProt P26660 192-383; P26660 384-750); assay: cell-based or functional assay
[7] = target: T2, E1E2 complex of HCV isolate H77 …; assay: cell-based or functional assay
[8] = target: E1E2 (Env) of HCV isolate UKN4.21.16 (genotype 4) on HCVpp (hepatitis C virus, isolate UKN4.21.16); assay: cell-based or functional assay
[9] = target: VSV (control pseudotype virus envelope); assay: cell-based or functional assay
[10] = target: E1E2 (Env) of HCV isolate OH8 (genotype 1b) on HCVpp (hepatitis C virus, isolate OH8); assay: cell-based or functional assay
[11] = target: E1E2 (Env) of HCV isolate UKN2A1.2 (genotype 2a) on HCVpp (hepatitis C virus, isolate UKN2A1.2); assay: cell-based or functional assay
[12] = target: E1E2 (Env) of HCV isolate UKN2B1.1 (genotype 2b) on HCVpp (hepatitis C virus, isolate UKN2B1.1); assay: cell-based or functional assay
H77 E1E2 mutant Y485A = H77 E1E2 mutant Y485A (HCV isolate H77, UniProt P27958 192-383; P27958 384-746); assay: ELISA, alanine mutant E1E2
H77 E1E2 mutant P491A = H77 E1E2 mutant P491A (HCV isolate H77, UniProt P27958 192-383; P27958 384-746); assay: ELISA, alanine mutant E1E2
H77 E1E2 mutant N532A = H77 E1E2 mutant N532A (HCV isolate H77, UniProt P27958 192-383; P27958 384-746); assay: ELISA, alanine mutant E1E2
H77 E1E2 mutant V538A = H77 E1E2 mutant V538A (HCV isolate H77, UniProt P27958 192-383; P27958 384-746); assay: ELISA, alanine mutant E1E2
H77 E1E2 mutant W549A = H77 E1E2 mutant W549A (HCV isolate H77, UniProt P27958 192-383; P27958 384-746); assay: ELISA, alanine mutant E1E2
H77 E1E2 mutant W529A = H77 E1E2 mutant W529A (HCV isolate H77, UniProt P27958 192-383; P27958 384-746); assay: ELISA, alanine mutant E1E2
H77 E1E2 mutant G523A = H77 E1E2 mutant G523A (HCV isolate H77, UniProt P27958 192-383; P27958 384-746); assay: ELISA, alanine mutant E1E2
H77 E1E2 mutant F550A = H77 E1E2 mutant F550A (HCV isolate H77, UniProt P27958 192-383; P27958 384-746); assay: ELISA, alanine mutant E1E2
H77 E1E2 mutant R483A = H77 E1E2 mutant R483A (HCV isolate H77, UniProt P27958 192-383; P27958 384-746); assay: ELISA, alanine mutant E1E2
H77 E1E2 mutant T416A = H77 E1E2 mutant T416A (HCV isolate H77, UniProt P27958 192-383; P27958 384-746); assay: ELISA, alanine mutant E1E2
H77 E1E2 mutant N540A = H77 E1E2 mutant N540A (HCV isolate H77, UniProt P27958 192-383; P27958 384-746); assay: ELISA, alanine mutant E1E2
H77 E1E2 mutant Y489A = H77 E1E2 mutant Y489A (HCV isolate H77, UniProt P27958 192-383; P27958 384-746); assay: ELISA, alanine mutant E1E2
H77 E1E2 mutant T534A = H77 E1E2 mutant T534A (HCV isolate H77, UniProt P27958 192-383; P27958 384-746); assay: ELISA, alanine mutant E1E2
H77 E1E2 mutant W420A = H77 E1E2 mutant W420A (HCV isolate H77, UniProt P27958 192-383; P27958 384-746); assay: ELISA, alanine mutant E1E2
[13] = target: E1E2 (Env) of HCV isolate H (genotype 1a) on HCVpp (hepatitis C virus, isolate H); assay: cell-based or functional assay

| Binder | % residual binding [1] | % residual binding [2] | % residual binding [3] | % residual binding [4] | % residual binding [5] | Neutralizing activity (IC50) on HCVpp [6] | Neutralizing activity (IC50) on HCVpp [7] | Neutralizing activity (IC50) on HCVpp [8] | Neutralizing activity (IC50) on control pseudotype virus [9] | Neutralizing activity (IC50) on HCVpp [10] | Neutralizing activity (IC50) on HCVpp [11] | Neutralizing activity (IC50) on HCVpp [12] | binding vs wild-type E1E2 (H77 E1E2 mutant Y485A) | binding vs wild-type E1E2 (H77 E1E2 mutant P491A) | binding vs wild-type E1E2 (H77 E1E2 mutant N532A) | binding vs wild-type E1E2 (H77 E1E2 mutant V538A) | binding vs wild-type E1E2 (H77 E1E2 mutant W549A) | binding vs wild-type E1E2 (H77 E1E2 mutant W529A) | binding vs wild-type E1E2 (H77 E1E2 mutant G523A) | binding vs wild-type E1E2 (H77 E1E2 mutant F550A) | also measured |
| --- | --- | --- | --- | --- | --- | --- | --- | --- | --- | --- | --- | --- | --- | --- | --- | --- | --- | --- | --- | --- | --- |
| B1 | 102% | 88% | 91% | 84% | 100% | > 50 µg/mL | > 50 µg/mL | > 50 µg/mL | > 50 µg/mL | > 50 µg/mL | > 50 µg/mL | > 50 µg/mL | 17% | 119% | 82% | 17% | 0% | 367% | 112% | 379% | binding vs wild-type E1E2 (H77 E1E2 mutant R483A): 64%; binding vs wild-type E1E2 (H77 E1E2 mutant T416A): 23%; binding vs wild-type E1E2 (H77 E1E2 mutant N540A): 0%; binding vs wild-type E1E2 (H77 E1E2 mutant Y489A): 189%; binding vs wild-type E1E2 (H77 E1E2 mutant T534A): 100%; binding vs wild-type E1E2 (H77 E1E2 mutant W420A): 141% |
| B2 | 87% | 82% | 82% | 84% | 15% | > 50 µg/mL | 1 µg/mL | 1 µg/mL | > 50 µg/mL | > 50 µg/mL | 5 µg/mL | 10 µg/mL | 67% | 123% | 58% | 62% | 151% | 132% | 129% | 156% | Neutralizing activity (IC50) on HCVpp [13]: 5 µg/mL; binding vs wild-type E1E2 (H77 E1E2 mutant R483A): 68%; binding vs wild-type E1E2 (H77 E1E2 mutant T416A): 99%; binding vs wild-type E1E2 (H77 E1E2 mutant N540A): 30%; binding vs wild-type E1E2 (H77 E1E2 mutant Y489A): 138%; binding vs wild-type E1E2 (H77 E1E2 mutant T534A): 84%; binding vs wild-type E1E2 (H77 E1E2 mutant W420A): 80% |
| B3 | 106% | 100% | 99% | 79% | 89% | > 50 µg/mL | > 50 µg/mL | > 50 µg/mL | > 50 µg/mL | > 50 µg/mL | > 50 µg/mL | > 50 µg/mL | 30% | 118% | 73% | 52% | 0% | 94% | 33% | 257% | binding vs wild-type E1E2 (H77 E1E2 mutant R483A): 32%; binding vs wild-type E1E2 (H77 E1E2 mutant T416A): 99%; binding vs wild-type E1E2 (H77 E1E2 mutant N540A): 25%; binding vs wild-type E1E2 (H77 E1E2 mutant Y489A): 52%; binding vs wild-type E1E2 (H77 E1E2 mutant T534A): 49%; binding vs wild-type E1E2 (H77 E1E2 mutant W420A): 41% |
